Positions count from the first letter of the chain named.
B1: A5(1E11) (designed binder)
chain: SGGGGSAIEVKDVTDTTALITWAKPWVDPPPLWGCELAYGIKDVPGDRTTIDLQQKHTAYSIGNLKPDTEYEVSLICFDPYGAKSNPAKETFTTGGGGSGGGGSGGGGSAIEVKDVTDTTALITWAKPWVDPPPLWGCELAYGIKDVPGDRTTIDLQQKHTAYSIGNLKPDTEYEVSLICFDPYGAKSNPAKETFTTGGGGSGGGGSGGGGSAIEVKDVTDTTALITWAKPWVDPPPLWGCELAYGIKDVPGDRTTIDLQQKHTAYSIGNLKPDTEYEVSLICFDPYGAKSNPAKETFTTGGGGSGGGGSGGGGSAIEVKDVTDTTALITWAKPWVDPPPLWGCELAYGIKDVPGDRTTIDLQQKHTAYSIGNLKPDTEYEVSLICFDPYGAKSNPAKETFTTGGGGSGGGGSGTGSAMASGGGGSAIEVKDVTDTTALITWAKPWVDPPPLWGCELAYGIKDVPGDRTTIDLQQKHTAYSIGNLKPDTEYEVSLICFDPYGAKSNPAKETFTTGGGGSGGGGSGGGGSAIEVKDVTDTTALITWAKPWVDPPPLWGCELAYGIKDVPGDRTTIDLQQKHTAYSIGNLKPDTEYEVSLICFDPYGAKSNPAKETFTTGGGGSGGGGSGGGGSAIEVKDVTDTTALITWAKPWVDPPPLWGCELAYGIKDVPGDRTTIDLQQKHTAYSIGNLKPDTEYEVSLICFDPYGAKSNPAKETFTTGGGGSGGGGSGGGGSAIEVKDVTDTTALITWAKPWVDPPPLWGCELAYGIKDVPGDRTTIDLQQKHTAYSIGNLKPDTEYEVSLICFDPYGAKSNPAKETFTTGGGGSGGGGSGTLGHHHHHHHH
B2: 1C12 (designed binder)
chain: AIEVKDVTDTTALITWAKPEKWDGSIYGCELAYGIKDVPGDRTTIDLNSRHTAYSIGNLKPDTEYEVSLICFTPYGAKSNPAKETFTTGGGTLGHHHHHHHH
B3: G3 (designed binder)
chain: B2 chain with G24P, S25P, I26L, Y27W
B4: C4 (designed binder)
chain: AIEVKDVTDTTALITWAKPWVDPPPLWGCELAYGIKDVPGDRTTIDLQQKHTAYSIGNLKPDTEYEVSLICFDPYNKRNVPAKETFTTGGGTLGHHHHHHHH
B5: G6 (designed binder)
chain: B4 chain with N76G, K77M, N79S, V80K
B6: M13 (M13) (designed binder)
chain: AIEVKDVTDTTALITWHDAFGYDFGCELTYGIKDVPGDRTTIDLPDHFHNYSIGNLKPDTEYEVSLICANDHGFDSNPAKETFTTGGGTLGHHHHHHHH
B7: A4(1E11) (designed binder)
chain: SGGGGSAIEVKDVTDTTALITWAKPWVDPPPLWGCELAYGIKDVPGDRTTIDLQQKHTAYSIGNLKPDTEYEVSLICFDPYGAKSNPAKETFTTGGGGSGGGGSGGGGSAIEVKDVTDTTALITWAKPWVDPPPLWGCELAYGIKDVPGDRTTIDLQQKHTAYSIGNLKPDTEYEVSLICFDPYGAKSNPAKETFTTGGGGSGGGGSGGGGSAIEVKDVTDTTALITWAKPWVDPPPLWGCELAYGIKDVPGDRTTIDLQQKHTAYSIGNLKPDTEYEVSLICFDPYGAKSNPAKETFTTGGGGSGGGGSGGGGSAIEVKDVTDTTALITWAKPWVDPPPLWGCELAYGIKDVPGDRTTIDLQQKHTAYSIGNLKPDTEYEVSLICFDPYGAKSNPAKETFTTGGGGSGGGGSGTGSAMASGGGGSAIEVKDVTDTTALITWAKPWVDPPPLWGCELAYGIKDVPGDRTTIDLQQKHTAYSIGNLKPDTEYEVSLICFDPYGAKSNPAKETFTTGGGGSGGGGSGGGGSAIEVKDVTDTTALITWAKPWVDPPPLWGCELAYGIKDVPGDRTTIDLQQKHTAYSIGNLKPDTEYEVSLICFDPYGAKSNPAKETFTTGGGGSGGGGSGTLGHHHHHHHH

Assays:
[1] = target: TRAIL R2 expressed on the cell surface (human, UniProt O14763); assay: cell-based or functional assay
[2] = target: TRAIL R2 (recombinant, form not given) (human, UniProt O14763, biotin (in the capture ELISA and the competition ELISA of Example 14)); assay: SPR (ProteOn XPR36), TRAIL R2 immobilised, equilibrium analysis
[3] = target: recombinant Murine CD40L (E. coli produced) (murine, UniProt P27548); assay: biosensor competition: inhibition of Murine CD40L (0.5 µg/ml) binding to immobilised Murine CD40-Fc

Row | Binder | Kd [2] [nM] | Fold Improvement (Kd, against lead clone 1C12) [2] [fold] | further results
1 | B1 |  |  | EC50, killing of H2122 cells [1]: 0.0006 nM; Maximum Inhibition %, H2122 cells [1]: 97%
2 | B2 | 4130 |  | 
3 | B3 | 422 | 10 | 
4 | B4 | 50 | 83 | 
5 | B5 | 43 | 96 | 
6 | B6 |  |  | IC50 [3]: 71 nM
7 | B7 |  |  | EC50, killing of H2122 cells [1]: 0.0009 nM; Maximum Inhibition %, H2122 cells [1]: 97%
